Source: PMC10978960, “Structure, function and substrate preferences of archaeal S-adenosyl-L-homocysteine hydrolases” (Communications Biology, 2024)

B1: S-adenosyl-L-homocysteine hydrolase from Sulfolobus acidocaldarius (enzyme)
chain: MDYRVKDLSLAEQGRKQIEWAELHMPALMEIRKRFNAEKPLDGIRIGAVLHVTKETAVLVETLKAGGAEIALAGSNPLSTQDDVAAGLAKNGIHVYAWRGETEKDYYDNIREILKYEPHVIMDDGGDLHAYVHENNLTSKIVGGTEETTTGVIRLKAMEEEKVLKYPVIAVNNAFTKYLFDNRIGTGQSTIDGILRATNILIAGKVAVVIGYGWVGRGIASRFKGMGARVIVVESSPFRALEALMDGFDVMTMNRASEIGDIFVTATGNLNVVSRDHILRMKDGAVLANSGHFNVEIDVKGLKEISVETREVRQNLEEYKLRNGKRIYLLADGRLVNLVAAEGHPSEVMDLSFCNQALSVEHLIKNKGKLENKVYNVPIEIDEQVARLKLKALGIEIEELTIEQKEYIKQWKYGT
notes: S-adenosyl-L-homocysteine hydrolase (SAHH) of Sulfolobus acidocaldarius; gene bought as a synthetic DNA string and cloned into pET28a(+); The tag counts as kept because protein concentration was determined with the molecular weight including the His6-tag and no cleavage step is described; also called SacSAHH; SAHH; source: E. coli BL21-Gold(DE3), purified (nickel-NTA, PD-10 desalting)
B2: S-adenosyl-L-homocysteine hydrolase from Mus musculus (enzyme)
chain: MSDKLPYKVADIGLAAWGRKALDIAENEMPGLMRMREMYSASKPLKGARIAGCLHMTVETAVLIETLVALGAEVRWSSCNIFSTQDHAAAAIAKAGIPVFAWKGETDEEYLWCIEQTLHFKDGPLNMILDDGGDLTNLIHTKYPQLLSGIRGISEETTTGVHNLYKMMSNGILKVPAINVNDSVTKSKFDNLYGCRESLIDGIKRATDVMIAGKVAVVAGYGDVGKGCAQALRGFGARVIITEIDPINALQAAMEGYEVTTMDEACKEGNIFVTTTGCVDIILGRHFEQMKDDAIVCNIGHFDVEIDVKWLNENAVEKVNIKPQVDRYWLKNGRRIILLAEGRLVNLGCAMGHPSFVMSNSFTNQVMAQIELWTHPDKYPVGVHFLPKKLDEAVAEAHLGKLNVKLTKLTEKQAQYLGMPINGPFKPDHYRY
notes: S-adenosyl-L-homocysteine hydrolase (SAHH, adenosylhomocysteinase) of Mus musculus; gene bought as a synthetic DNA string and cloned into pET28a(+); The tag counts as kept because protein concentration was determined with the molecular weight including the His6-tag and no cleavage step is described; also called MmSAHH; SAHH; source: E. coli BL21-Gold(DE3), purified (nickel-NTA, PD-10 desalting)
B3: S-adenosyl-L-homocysteine hydrolase from Pyrococcus furiosus (enzyme)
chain: MDCGKDYCVKDLSLAEEGWKKIDWVSRFMPVLQYIKREFEEKKPFKGVRIAATLHLEMKTAFLLLTLKAGGAEVSAAASNPLSTQDDVVAALAKAGVKVYAIRGESREQYYEFMHKALDIRPNIIIDDGADMISLVHKERQEMLDEIWGGSEETTTGVIRLRAMEKAGILKFPVIAVNDSYMKYLFDNRYGTGQSTWDGIMRATNLLIAGKNVVVVGYGWCGRGIAMRARGLGATVIVVEVDPIKALEARMDGFLVMDMKEAAKIGDIFVTATGNIKCIRREHFELMKDGAIMANAGHFDVEIWKPDLEKLAVEINNPRPNVTEYKLKDGRRLYLLADGRLVNLVAADGHPAEIMDMSFALQAKAAEYIKDNHERLEPKVYILPREIDEMVARIKLESMGIKIEELTEEQKKYLESWEHGT
notes: S-adenosyl-L-homocysteine hydrolase (SAHH) of Pyrococcus furiosus; gene bought as a synthetic DNA string and cloned into pET28a(+); The tag counts as kept because protein concentration was determined with the molecular weight including the His6-tag and no cleavage step is described; One sample was heated at 95 °C for 15 min before crystallisation (8QNO); also called PfuSAHH; SAHH; source: E. coli …
B4: S-adenosyl-L-homocysteine hydrolase from Methanococcus maripaludis (enzyme)
chain: MSNVKDMSLAPSGHLKMEWAKRHMPVLCRIAEEFKNDKPFEGLTIGMALHLEAKTAILAETLLEGGAKIVITGCNPLSTQDDVAAACVEKGMEVYAWRGETNEEYYENLNKVLDSNPDIIIDDGADLIFLIHTERTELIGKIMGGCEETTTGIIRLKSMAEEGALKFPVVNVNDAYTKHLFDNRYGTGQSAMDGIIRTTNLLIAGKNVVVGGYGWCGRGVASRAAGHGANVIITEVNPIRALEAKMDGFTVLKMEEAAKIGDIFVTTTGCKDILRMEHFLLMKDGAVLSNAGHFDNEINKNDLKELSKSVKEARFNIEEYDLGNKKIYLLGEGRLVNLACADGHPCEVMDMSFANQALSAKFIKENKGKLENEVYEIPYEQDFKIALLKLHSMGADIDELSPEQRKYLSDWKEGT
notes: S-adenosyl-L-homocysteine hydrolase (SAHH) of Methanococcus maripaludis; gene bought as a synthetic DNA string and cloned into pET28a(+); The tag counts as kept because protein concentration was determined with the molecular weight including the His6-tag and no cleavage step is described; also called MmaSAHH; SAHH; source: E. coli BL21-Gold(DE3), purified (nickel-NTA, PD-10 desalting)

Molecular target: the molecule itself
Test: crystal structure; co-crystals of the purified enzyme with co-purified NAD+ and a nucleoside ligand (inosine, SIH or adenosine), sitting drop vapour diffusion at room temperature or 22 °C; tetramers built in the respective space groups and analysed with PDBePISA

Stoichiometry N, 4:
B1, B2, B3, B4
